The text below walks through data of patent US20080274480A1.

For this experiment, the target named is BoNT/A receptor on mouse brain synaptosomes (mouse).

By IC50 is commonly meant the concentration that inhibits the measured activity by half. A high value points to weaker potency in that assay. “inactive BoNT/A toxin (formaldehyde-inactivated BoNT/A, Metabiologics, Inc.), unlabeled (from UniProt P0DPI1 2-1296)” registered an IC50 of 13 nM, a percent inhibition of 100% and a percent inhibition at 2.0 µg of 98%.
